Sequences and labels used below:
B1: DELLA protein GAI (Arabidopsis thaliana (Mouse-ear cress)), Q9LQT8 (parent)
chain: MKRDHHHHHHQDKKTMMMNEEDDGNGMDELLAVLGYKVRSSEMADVAQKLEQLEVMMSNVQEDDLSQLATETVHYNPAELYTWLDSMLTDLNPPSSNAEYDLKAIPGDAILNQFAIDSASSSNQGGGGDTYTTNKRLKCSNGVVETTTATAESTRHVVLVDSQENGVRLVHALLACAEAVQKENLTVAEALVKQIGFLAVSQIGAMRKVATYFAEALARRIYRLSPSQSPIDHSLSDTLQMHFYETCPYLKFAHFTANQAILEAFQGKKRVHVIDFSMSQGLQWPALMQALALRPGGPPVFRLTGIGPPAPDNFDYLHEVGCKLAHLAEAIHVEFEYRGFVANTLADLDASMLELRPSEIESVAVNSVFELHKLLGRPGAIDKVLGVVNQIKPEIFTVVEQESNHNSPIFLDRFTESLHYYSTLFDSLEGVPSGQDKVMSEVYLGKQICNVVACDGPDRVERHETLSQWRNRFGSAGFAAAHIGSNAFKQASMLLALFNGGEGYRVEESDGCLMLGWHTRPLIATSAWKLSTN
partner: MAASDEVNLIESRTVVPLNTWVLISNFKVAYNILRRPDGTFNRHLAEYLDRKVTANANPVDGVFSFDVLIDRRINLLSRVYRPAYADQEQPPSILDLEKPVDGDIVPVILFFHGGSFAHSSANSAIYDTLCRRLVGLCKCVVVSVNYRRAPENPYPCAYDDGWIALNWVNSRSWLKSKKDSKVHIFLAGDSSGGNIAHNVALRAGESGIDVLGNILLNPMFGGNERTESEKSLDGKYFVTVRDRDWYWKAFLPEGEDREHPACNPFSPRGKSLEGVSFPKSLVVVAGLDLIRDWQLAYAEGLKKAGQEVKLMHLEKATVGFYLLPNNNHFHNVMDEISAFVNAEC

In the test the parent is B1. As to conditions: with gid1a_arath GID1A.
For MKRDHHHHHHQDKKTMMMNEEDDGNGMDELAAVLGYKARSSEMADVAQKLEQLEVMMSNVQEDDLSQLATETVHYNPAELYTWLDSMLTDLNPPSSNAEYDLKAIPGDAILNQFAIDSASSSNQGGGGDTYTTNKRLKCSNGVVETTTATAESTRHVVLVDSQENGVRLVHALLACAEAVQKENLTVAEALVKQIGFLAVSQIGAMRKVATYFAEALARRIYRLSPSQSPIDHSLSDTLQMHFYETCPYLKFAHFTANQAILEAFQGKKRVHVIDFSMSQGLQWPALMQALALRPGGPPVFRLTGIGPPAPDNFDYLHEVGCKLAHLAEAIHVEFEYRGFVANTLADLDASMLELRPSEIESVAVNSVFELHKLLGRPGAIDKVLGVVNQIKPEIFTVVEQESNHNSPIFLDRFTESLHYYSTLFDSLEGVPSGQDKVMSEVYLGKQICNVVACDGPDRVERHETLSQWRNRFGSAGFAAAHIGSNAFKQASMLLALFNGGEGYRVEESDGCLMLGWHTRPLIATSAWKLSTN [L31A;V38A], the “effect of a mutation on the interaction” value is given as “disrupting interaction”.
Take MKRDHHHHHHQDKKTMMMNEEDDGNGMDELLAVLGYKVRSSEMADVAQKLRQLRVMMSNVQEDDLSQLATETVHYNPAELYTWLDSMLTDLNPPSSNAEYDLKAIPGDAILNQFAIDSASSSNQGGGGDTYTTNKRLKCSNGVVETTTATAESTRHVVLVDSQENGVRLVHALLACAEAVQKENLTVAEALVKQIGFLAVSQIGAMRKVATYFAEALARRIYRLSPSQSPIDHSLSDTLQMHFYETCPYLKFAHFTANQAILEAFQGKKRVHVIDFSMSQGLQWPALMQALALRPGGPPVFRLTGIGPPAPDNFDYLHEVGCKLAHLAEAIHVEFEYRGFVANTLADLDASMLELRPSEIESVAVNSVFELHKLLGRPGAIDKVLGVVNQIKPEIFTVVEQESNHNSPIFLDRFTESLHYYSTLFDSLEGVPSGQDKVMSEVYLGKQICNVVACDGPDRVERHETLSQWRNRFGSAGFAAAHIGSNAFKQASMLLALFNGGEGYRVEESDGCLMLGWHTRPLIATSAWKLSTN [E51R;E54R]: the “effect of a mutation on the interaction” value is “disrupting interaction”.
To MKRDHHHHHHQDKKTMMMNEEDDGNGMDELLAVLGAKVRSSEAADVAQKLEQLEVMMSNVQEDDLSQLATETVHYNPAELYTWLDSMLTDLNPPSSNAEYDLKAIPGDAILNQFAIDSASSSNQGGGGDTYTTNKRLKCSNGVVETTTATAESTRHVVLVDSQENGVRLVHALLACAEAVQKENLTVAEALVKQIGFLAVSQIGAMRKVATYFAEALARRIYRLSPSQSPIDHSLSDTLQMHFYETCPYLKFAHFTANQAILEAFQGKKRVHVIDFSMSQGLQWPALMQALALRPGGPPVFRLTGIGPPAPDNFDYLHEVGCKLAHLAEAIHVEFEYRGFVANTLADLDASMLELRPSEIESVAVNSVFELHKLLGRPGAIDKVLGVVNQIKPEIFTVVEQESNHNSPIFLDRFTESLHYYSTLFDSLEGVPSGQDKVMSEVYLGKQICNVVACDGPDRVERHETLSQWRNRFGSAGFAAAHIGSNAFKQASMLLALFNGGEGYRVEESDGCLMLGWHTRPLIATSAWKLSTN [Y36A;M43A] belongs “disrupting interaction”.
As for MKRDHHHHHHQDKKTMMMNEEDDGNGMDELLAVLGAKVRSSEMADVAQKLEQLEVMMSNVQEDDLSQLATETVHYNPAELYTWLDSMLTDLNPPSSNAEYDLKAIPGDAILNQFAIDSASSSNQGGGGDTYTTNKRLKCSNGVVETTTATAESTRHVVLVDSQENGVRLVHALLACAEAVQKENLTVAEALVKQIGFLAVSQIGAMRKVATYFAEALARRIYRLSPSQSPIDHSLSDTLQMHFYETCPYLKFAHFTANQAILEAFQGKKRVHVIDFSMSQGLQWPALMQALALRPGGPPVFRLTGIGPPAPDNFDYLHEVGCKLAHLAEAIHVEFEYRGFVANTLADLDASMLELRPSEIESVAVNSVFELHKLLGRPGAIDKVLGVVNQIKPEIFTVVEQESNHNSPIFLDRFTESLHYYSTLFDSLEGVPSGQDKVMSEVYLGKQICNVVACDGPDRVERHETLSQWRNRFGSAGFAAAHIGSNAFKQASMLLALFNGGEGYRVEESDGCLMLGWHTRPLIATSAWKLSTN [Y36A], the “effect of a mutation on the interaction” value is recorded as “decreasing interaction”.

The values above are taken from IntAct's records for PubMed 19037309.
